Here are results for two sequences from patent US20140296501.

The target in this data set is EGFR (ERBB1) (UniProt P00533).

pKd: −log10 of the molar value. Read-outs that look alike come from different tables or passages of the source.

A word on the pKd: it is the Kd on a negative log10 scale, so that one unit is a factor of ten. Lower therefore signals a large Kd. “CCACGCTGGGTGGGTCATCGAGGTTGTGGGTCGGATTGTTGGATTCTTTAAGTTGGGAACACCAACCGAGAACG [EGFR aptamer SEQ ID NO: 4]” gave a pKd (N = BndU (5-benzylaminocarbonyl-2'-deoxyuridine), text prints natural T in the 5' region CCACGCTGGGTGGGTC while listing shows n there [n positions 7,11,15,18,24,25,27,31,36,37,39,40,44,45,47,48,49,53,54 = modified dU]) of 9.91. In turn, “ATCGAGGTTGTGGGTCGGATTGTTGGATTCTTTAAGTTGGGAACACCAAC [EGFR aptamer SEQ ID NO: 5 (50-mer truncate)]” showed a pKd (N = BndU [n positions 2,8,9,11,15,20,21,23,24,28,29,31,32,33,37,38 = modified dU]) of 9.28.
